Where no end group is shown, it is not given here. [ ]: non-standard residue; d: D form. The star is where a group is joined. Hexanoyl = CCCCCC(=O)*; Aib = CC(C)(N)C(=O)O
Biological target: T1, human VPAC2 receptor (human, UniProt P41587 24-438)
T1 sequence (looked up): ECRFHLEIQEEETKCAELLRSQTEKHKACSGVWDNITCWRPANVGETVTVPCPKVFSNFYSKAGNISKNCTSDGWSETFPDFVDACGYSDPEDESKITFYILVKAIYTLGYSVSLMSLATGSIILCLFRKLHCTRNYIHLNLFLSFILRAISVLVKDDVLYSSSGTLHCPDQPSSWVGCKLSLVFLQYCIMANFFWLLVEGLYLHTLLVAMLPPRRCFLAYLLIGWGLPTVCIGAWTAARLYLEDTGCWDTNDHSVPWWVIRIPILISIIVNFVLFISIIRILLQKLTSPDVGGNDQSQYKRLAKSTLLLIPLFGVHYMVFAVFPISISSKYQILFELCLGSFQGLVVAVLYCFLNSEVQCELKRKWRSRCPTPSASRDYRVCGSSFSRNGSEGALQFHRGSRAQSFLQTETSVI
Assay: cell-based or functional assay

## Hexanoyl-HSDIVFTDNYTRLRKQVAAKKYLQSIKNKRYGGPSSGAPPPS [P221]
  EC50 cAMP, Alpha Screen: 1980 pM

## Hexanoyl-HSDAVFTDNYTRLRKQVAAKKALQSIKNKRYGGPSSGAPPPS [P229]
  EC50 cAMP, Alpha Screen: 2600 pM

## Hexanoyl-HSDAVFTDNYTRLQKQVAA[Aib]KYLQSIKNKRYGGPSSGAPPPS (ends and bridges not checked) [P250]
  EC50 cAMP, Alpha Screen: 180 pM

## Hexanoyl-HSDAVFTDNYTRLQ[Aib]QVAAKKYLQSIKNKRYGGPSSGAPPPS (ends and bridges not checked) [P258]
  EC50 cAMP, Alpha Screen: 170 pM

## Hexanoyl-HSDAVFTDNYTRLR[Aib]QVAAVKYLQSIKNKRYGGPSSGAPPPS (ends and bridges not checked) [P262]
  EC50 cAMP, Alpha Screen: 240 pM

## Hexanoyl-HSDAVFTDNYTRLR[Aib]QVAAAKYLQSIKNKRYGGPSSGAPPPS (ends and bridges not checked) [P263]
  EC50 cAMP, Alpha Screen: 70 pM

## Hexanoyl-HSDLVFTDNYTRLRKQVAAKKYLQSIKNKRYGGPSSGAPPPS [P223]
  EC50 cAMP, Alpha Screen: 5820 pM

## Hexanoyl-HSDAVFTDQYTRLRRQVAARKYLQSIRQGGPSSGAPPPS [P220]
  EC50 cAMP, Alpha Screen: 120 pM

## Hexanoyl-HSDAVFTDNYTRLRKQVAAKKYTQSIKNKRYGGPSSGAPPPS [P232]
  EC50 cAMP, Alpha Screen: 1940 pM

## Hexanoyl-HSDAVFTDNYTRLRKQVAAKK[Aib]LQSIKNKRYGGPSSGAPPPS (ends and bridges not checked) [P228]
  EC50 cAMP, Alpha Screen: 3480 pM

## Hexanoyl-HSDAVFTDNYTRL[Aib]KQVAAKQYLQSIKNKRYGGPSSGAPPPS (ends and bridges not checked) [P249]
  EC50 cAMP, Alpha Screen: 930 pM

## Hexanoyl-HSDAVFTDNYTRL[Aib]KQVAAAKYLQSIKNKRYGGPSSGAPPPS (ends and bridges not checked) [P260]
  EC50 cAMP, Alpha Screen: 830 pM

## Hexanoyl-HSDAVFTDNYTRL[Aib]KQVAALKYLQSIKNKRYGGPSSGAPPPS (ends and bridges not checked) [P259]
  EC50 cAMP, Alpha Screen: 1080 pM

## Hexanoyl-HSDAVFTDNYTRL[Aib]KQVAAVKYLQSIKNKRYGGPSSGAPPPS (ends and bridges not checked) [P269]
  EC50 cAMP, Alpha Screen: 1020 pM

## Hexanoyl-HSDAVFTDNYTRLRKQVAAKKY[Aib]QSIKNKRYGGPSSGAPPPS (ends and bridges not checked) [P236]
  EC50 cAMP, Alpha Screen: 120 pM

## Hexanoyl-HSDA[Aib]FTDNYTRLRKQVAAKKYLQSIKNKRYGGPSSGAPPPS (ends and bridges not checked) [P212]
  EC50 cAMP, Alpha Screen: 120 pM

From patent publication US20080026996A1, “Selective Vpac2 Receptor Reptide Agonists” (ELI LILLY AND COMPANY, priority 2004, published 2008)
